Experimental data published in the supplement of paper PMC9170038.

System: K4 kissing-loop RNA reporter
Experiment: apparent KD of K4 kissing-loop reporter; higher = weaker reporter binding
Conditions: Eterna round: R107
Description: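 RNA-MaP round R107: designed RNA switches with theophylline, tryptophan, arginine or FMN aptamers are transcribed on-chip within common flanks. They are titrated with a labelled K4 kissing-loop RNA reporter in RNA-MaP buffer (100 mM Tris pH 7.5, 80 mM KCl, 4 mM MgCl2), without ligand or with the indicated ligand. Median apparent KD per design.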

[1] = input ligand: theophylline 20 uM
[2] = input ligand: tryptophan 2.4 mM
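Note: bound reporter read as fluorescence of individual clusters on recovered sequencing chips by microscopy, with normalized cluster intensities fitted with a binding model.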

Row | Sequence | apparent KD of K4 kissing-loop reporter (input ligand: FMN 200 uM) | apparent KD of K4 kissing-loop reporter (input ligand: arginine 13.2 mM) | apparent KD of K4 kissing-loop reporter (input ligand: none) | apparent KD of K4 kissing-loop reporter [1] | apparent KD of K4 kissing-loop reporter [2]
1 | AUUUAAUGUAUAGAUUAUAUACAUUAUUCAGAGGAUAUGCUUUGAAGCAGAAGGCUGGAUGUAGUGAUGUUGCAAUUUUAAUUUA [JR_SSFMNA_Sub006] | 214 nM | 265 nM | 236 nM | 250 nM | 163 nM
2 | AUUUAAUUAACUGAUACCAGACUUUUUGUUUUGAUAAUUACUAGUGAUGUUAGUGUUUCUGUCCCUUGGCAGCAGUAUCUACUUA [JR_ExcTheophyB_Sub017] | 121 nM | 177 nM | 122 nM | 209 nM | 106 nM
3 | AUUUAGACGAGUGAUGUUCGUGAUAUUACAGAGGAUAUGCUUAAAAGCAGAAGGCUGUAUUUAUAUUUGUUAUGUAAUUUUAAAA [JR_ExcFMNA_Sub005] | 79.9 nM | 95.4 nM | 78 nM | 95.5 nM | 62.7 nM
4 | AUUUUGGUUUAGAGUGAUGUUCCUUGUAUUCGAGGACCGGUACGGCCGCCACUCGAAUAGAAAAGAAAAGAAAUGUUUGAUGUUU [BDazzled - #6 SS Tryptophan A] | 551 nM | 193 nM | 537 nM | 274 nM | 393 nM
5 | CACGAUGAAUUCUCUAGGAGUGAUGUUUUUCGAGGACCGGUACGGCCGCCACUCGGACGACGAGUGUGGUAGCGGGCUGAAGACU [zgullin] | 429 nM | 262 nM | 643 nM | 239 nM | 561 nM
6 | CACUGGGCGAGUGAUGUUCGCUCACGUGAUACCAGUGCCAUCCAACACCCUUGGCAGCAUGCGGGCAGUGAUGUUGUCCAAAGAA [Exclusion Theophylline A GF9] | 204 nM | 187 nM | 207 nM | 208 nM | 184 nM
7 | CAGAUCACAGAGUGAUGUUCUGUGUCCGAAGGAGCGCGCGAGAGCGCAGGUAGGUCGCGGAUACAGUUGACGUACCAUCUAGACA [Arg A Ex t3b] | 306 nM | 244 nM | 278 nM | 246 nM | 269 nM
8 | CAGCCCAAAUGGCGAGAAGUGUUCCUUAGUCGAGGACCGGUACGGCCGCCACUCGCUCUAAACAUUAGGAGUGAUGUUCCAUUAG | 168 nM | 258 nM | 215 nM | 335 nM | 90.6 nM
9 | CAUACGCAUGGAGGAUAUGAGAUUACUCAUGUCAUUUAAUAUUCUCAGUGAUGUUGAGAUUUAGGCUCAGAAGGCCAUGUGUAUG [Ex FMN B 17] | 355 nM | 514 nM | 630 nM | 534 nM | 525 nM
10 | CAUACGCAUGGAGGAUAUGAGAUUUCUCAUAUUAUUUAAUAUUCUCAGUGAUGUUGAGAUAUAAACUCAGAAGGCCAUGUGUAUG [Ex FMN B 2] | 340 nM | 198 nM | 196 nM | 245 nM | 215 nM
11 | CAUAGGAAACUAUGUAUCUCUCUUACUGAAGGAGCGCGUGAAAACGCAGGUAGGUCGCAGAAUUUAAAAGAGAGUGAUGUUCUCU [Ex Arginine A K4 8] | 358 nM | 253 nM | 332 nM | 247 nM | 301 nM
12 | CAUCUGGACCAAGGAUAUGUGGGCAUAAUAAAAUUACCACCUUAUUUGCAGUAAGUGAUGUUUAACACAGAAGGUGGACAUAGAC [theeternabot_exclusion_KL_FMN_B_10] | 1170 nM | 725 nM | 1170 nM | 701 nM | 822 nM
13 | CAUGAGUGAUGUUCGUGCGCUUGGUCGAAGCGAGGACCGGUACGGCCGCCACUCGCUAUGGCGGCAUCUACCAGUGAUGUUGGUG [Same State Tryptophan A GF 2] | 241 nM | 171 nM | 228 nM | 202 nM | 208 nM
14 | CCAGGACGAUGAGGAGGAUGAAUUACUGAAGGAGCGCAUAUGGUUGCAGGUAGGUCGCGGUGAACAAGUAUAGUGAUGUUAUAUC [SSArgA.S] | 365 nM | 971 nM | 538 nM | 321 nM | 321 nM
15 | CCAGGACGAUGAGGAUGAUGAAUUACUGAAGGAGCGCAUAUGGUUGCAGGUAGGUCGCGGUGAACAAGUAUAGUGAUGUUAUACC [SSArgA.U] | 327 nM | 282 nM | 340 nM | 515 nM | 348 nM
16 | CCAUCGCUAUUCGAUACCAGCUCCUUAGUGAUGUUAAGGUUUUACCCUCUGUAGGAGGGAAGCCCUUGGCAGCGAGUAGUGAUGG [#03 K4 Theophylline B Same State] | 1270 nM | 802 nM | 948 nM | 623 nM | 1370 nM
17 | CCAUCGCUAUUCGAUACCAGUCAUUAAAUCUUUGGUUUAAUAAAGGAGUGAUGUUCCCAAGACCCUUGGCAGCGAAUAGUGAUGG [Theophylline B K4 9] | 213 nM | 183 nM | 198 nM | 166 nM | 207 nM
18 | CCAUCGCUGUUCGAUACCAGUCAUUUUUUAUUUUAUUUUUUUUUUGGAGUGAUGUUCCAAGACCCUUGGCAGCGGAUAGUGAUGG [whbob_SS_Theo_B_th80] | 116 nM | 143 nM | 114 nM | 145 nM | 111 nM
19 | CCAUUCUUUUACGAUACCAGUUUAAUAUAUUUAUUCAAAACCCUUGCCGAGUGAUGUUCGGACCCUUGGCAGCGUUUGCGAGAGG [ttedstkmullin] | 455 nM | 376 nM | 465 nM | 434 nM | 356 nM
20 | CCCAAGGGCCUACCGGUAUUAUUAACGGAUACCAGAGGCGAAAGCCUCCCUUGGCAGCCGGGUGUAGUGAUGUUACUCCGGUAGU | 83.4 nM | 64.7 nM | 70.2 nM | 63.2 nM | 78.1 nM
21 | CCCUCACGAGUGAUGUUCGUAGGGUACAGUCAGGAUAUCAUGCGGUUGAGAAGGGACAGAGAGGGCGGCCACGGGUUGCUCCUCU [Lariusteza] | 183 nM | 259 nM | 386 nM | 345 nM | 305 nM
22 | CCGAUACAUUAUUCUACGGCCGAGAGUGAUACCAGCCGUAUUUGUGGCCCUUGGCAGCGCAGAUGCAGUGAUGUUGCAUACUUGU [Same State Theophylline A GF 20] | 68.7 nM | 93.7 nM | 78.1 nM | 96.6 nM | 63.5 nM

Row | Sequence | apparent KD of K4 kissing-loop reporter (input ligand: FMN 200 uM) | apparent KD of K4 kissing-loop reporter (input ligand: arginine 13.2 mM) | apparent KD of K4 kissing-loop reporter (input ligand: none) | apparent KD of K4 kissing-loop reporter [1] | apparent KD of K4 kissing-loop reporter [2]
23 | CCGCCAUCAUCAGAUACCAGACUGAUGGCGGUAACCGCCAAGCGAGUGAUGUUCGCAUCAGUCCCUUGGCAGCUGAUGAAGACUG [Theo B SS t4] | 255 nM | 82.4 nM | 110 nM | 104 nM | 154 nM
24 | CCGGCCCAGCCGGAUACCAGUGCGCCGCAGGGAACGGCGGGCCCAGAGUGAUGUUCGGGACACCCUUGGCAGCCGCCUGGGUCGU [#2 Same State - Theophylline B Attempt #28 (HarryS)] | 414 nM | 262 nM | 365 nM | 258 nM | 274 nM
25 | CCGUGGAGUGAUGUUCCACGUUCUACGGAUACCAGCUUUGCCAAAGGCCCUUGGCAGCCGCACCUUGCAGUGAUGUUGUGAGGCU [Same State Theophylline A Gf7] | 329 nM | 268 nM | 305 nM | 302 nM | 274 nM
26 | CCGUGGAGUGAUGUUCCACGUUCUACGGAUACCAGUUGUGCCAGCGGCCCUUGGCAGCCGCACCUUGCAGUGAUGUUGUGAGGCU [Same State Theophylline A Gf 6] | 238 nM | 210 nM | 225 nM | 229 nM | 198 nM
27 | CCUAUCUCAUACGAUACCAGUCAAUGAUCUUUGAUCAAUGCCAUCACCGAGUGAUGUUCGGACCCUUGGCAGCGUAUGAGAUAGG [whbob_Ex_Theo_B_sa103] | 277 nM | 225 nM | 267 nM | 452 nM | 247 nM
28 | CCUAUCUCGUACGAUACCAGUCAAUGAUCUUUGAUCAAUGCCAUCACCGAGUGAUGUUCGGACCCUUGGCAGCGUAUGAGAUGGG [whbob_Ex_Theo_B_sa105] | 272 nM | 207 nM | 251 nM | 386 nM | 242 nM
29 | CCUAUCUCUUACGAUACCAGUCAAUGAUAUUUUAUCAAUGCCCUCACCGAGUGAUGUUCGGACCCUUGGCAGCGUAUGGGAUAGG [kjnjmullin] | 241 nM | 162 nM | 212 nM | 175 nM | 188 nM
30 | CCUGCAGCUGUUACCGAGGGAUGCUACGGACGAGGACCGGUACGGCCGCCACUCGCCAGUGAUGUUGGUGAGGGAGGACGUUCCU [Georte] | 100 nM | 106 nM | 150 nM | 172 nM | 148 nM
31 | CCUUCUCAUUUCCGUUAUCAUUGCCUUAGGAAGGAUAUCAUUAUUUUGAGAAGGUCCGUGGUCUAUUUUCCGAGUGAUGUUUGGU [theeternabot_exclusion_KL_FMN_A_45] | 273 nM | 226 nM | 311 nM | 277 nM | 248 nM
32 | CCUUGGAUUAGCUGUACUUUUCUACGGGAUACCAGUGCGUAACACCACCCUUGGCAGCCCGAUUACCGGCAGUGAUGUUGCCUCU [theeternabot_sameState_KL_Theo_A_41] | 185 nM | 282 nM | 244 nM | 245 nM | 192 nM
33 | CGACGCCGGUCGGCCGCCACUCACAGCAGCCAGUGAUGUUGGAUUGUAGCGGAGUGAUGUUUCGCGAGGACCGGGACUGCAGUCG [Same State Tryptophan B GF 12] | 167 nM | 131 nM | 129 nM | 130 nM | 143 nM
34 | CGAGUGAUGUUCGUUUUUUUAUUUUUUUGACAGGAUAUGCGGAAACGCAGAAGGGUCACCUUUGAGUUAAAAGAAUUUAAAUUAU [Ex FMN A 23] | 278 nM | 208 nM | 254 nM | 213 nM | 193 nM
35 | CGCAGUGAUGUUGCGAGUUUGAUCAGGGAAGGAGCGGCUCAGAAGCCAGGUAGGUCGCCCACGCAGUGAUGUUGUGUAUUCGGGU [Exclusion Arginine A GF 1] | 96.9 nM | 88.1 nM | 87.9 nM | 89.1 nM | 79.3 nM
36 | CGCAGUGAUGUUGCUAUAUUUCUUGAUUAACGAGGACCGGUACGGCCGCCACUCGAUUUCUCUCUAAUCCACUAUGUUGUUUAGA [JR_SSTryptoA_Sub002] | 390 nM | 472 nM | 506 nM | 524 nM | 319 nM
37 | CGCAGUGAUGUUGCUAUUAUUCUUGAUUAACGAGGACCGGUACGGCCGCCACUCGAUUUCUAUCUAAUCCAGUGUUUUGUUGAGU [JR_ExcTryptoA_Sub002] | 324 nM | 422 nM | 346 nM | 455 nM | 240 nM
38 | CGCCACAACUGAAGGAGCGCGCCAGUGAUGUUGGACGGCUUCGUCAAGGAAACUGCACCGGUGCAGGUAGGUCGCAGUGCGUGGU [Eranarve] | 186 nM | 164 nM | 204 nM | 162 nM | 195 nM
39 | CGCCGAUUGUCGGAGUGAUGUUCCCGGGAUACCAGCACGUCGUCAUGCCCUUGGCAGCCCAACAGACCAUUUUAAAGGCUAGCUG [theeternabot_sameState_KL_Theo_A_35] | 330 nM | 97.8 nM | 122 nM | 221 nM | 158 nM
40 | CGCCGGAAGGCGAGCGCUCCCACUCCGGAAGGAGCGCCCGGAAGGGCAGGUAGGUCGCCGGAGUGAUGUUCCGGUGGAGGGCUCG [#2 Exclusion - Arginine A Attempt #11 (Inspired by Omei)] | 171 nM | 58 nM | 164 nM | 99.3 nM | 99.9 nM
41 | CGCGGCCGGCCGGAUACCAGUGACCCGCUGGAAACCGCGGGCCCAGAGUGAUGUUCGGGACACCCUUGGCAGCCGCCUGGGCGUG [#2 Same State - Theophylline B Attempt #2 (HarryS)] | 547 nM | 309 nM | 440 nM | 456 nM | 397 nM
42 | CGCUGGGCGAGUGAUGUUCGCUCACGUGAUACCAGUGCAAUCCAACACCCUUGGCAGCACGCGGGCAGUGAUGUUGUCCUUAGUG [Exclusion Theophylline A GF12] | 160 nM | 149 nM | 157 nM | 143 nM | 127 nM
43 | CGUGAAUGUCGUCAGUCAUCGGUCCAUGCACGAGGACCGGUACGGCCGCCACUCGAGCGUGGCAGUGAUGUUGCCAGCGCACUAA [KL-XTryp-A13] | 138 nM | 115 nM | 128 nM | 137 nM | 315 nM
